{"source": "patent US11306156", "key": {"[1]": {"molecular_target": "D3H44 Fab heavy chain S188G", "assay": "LCCA, L1:L2 DNA 1:3 normalised to 1:1, SPR of light chain tags; competitor m42"}, "[2]": {"molecular_target": "D3H44 Fab heavy chain S188L", "assay": "LCCA, L1:L2 DNA 1:3 normalised to 1:1, SPR of light chain tags; competitor m42"}, "[3]": {"molecular_target": "D3H44 Fab heavy chain L124E_L143E_K145T", "assay": "LCCA, SPR of light chain tags; L1:L2 DNA 1:9 normalized to 1:1; competitor m10"}, "[4]": {"molecular_target": "D3H44 Fab heavy chain L124R_Q179K", "assay": "LCCA, SPR of light chain tags; L1:L2 DNA 1:9 normalized to 1:1; competitor m10"}, "[5]": {"molecular_target": "D3H44 Fab heavy chain L124E_L143E_K145T", "assay": "LCCA, SPR of light chain tags; L1:L2 DNA 1:3 normalized to 1:1; competitor m10"}, "[6]": {"molecular_target": "D3H44 Fab heavy chain L124R_Q179K", "assay": "LCCA, SPR of light chain tags; L1:L2 DNA 1:3 normalized to 1:1; competitor m10"}, "[7]": {"molecular_target": "D3H44 Fab heavy chain L124E_L143D_K145T (H1 of LCCA sets 9214, 9217, 9216, 9219, 9220, 9225, 9228, 9229)", "assay": "LCCA: H1 co-expressed with L1 and L2 (DNA 333:250:749 ng), His-tag capture on SPR chip, light chain tags detected with anti-HA/anti-FLAG; competitor L1 Q124K_V133G_S176R_T178K"}, "[8]": {"molecular_target": "D3H44 Fab heavy chain L124R_D146N_Q179K (H1 of LCCA sets 9358, 9359, 9357, 9351, 9352, 9353, 9354, 9350)"}, "[9]": {"molecular_target": "D3H44 Fab heavy chain L124R_D146N_Q179K (H1 of LCCA sets 9358, 9359, 9357, 9351, 9352, 9353, 9354, 9350)", "assay": "LCCA: H1 co-expressed with L1 and L2 (DNA 333:250:749 ng), His-tag capture on SPR chip, light chain tags detected with anti-HA/anti-FLAG; competitor L2 Q124K_V133G_Q160K_S176R"}, "[10]": {"molecular_target": "D3H44 Fab heavy chain L124E_K145M_Q179E", "assay": "LCCA, SPR of light chain tags; L1:L2 DNA 1:3 normalized to 1:1; competitor m8"}, "[11]": {"molecular_target": "D3H44 Fab heavy chain L124R_D146N_Q179K", "assay": "LCCA, SPR of light chain tags; L1:L2 DNA 1:3 normalized to 1:1; competitor m8"}, "[12]": {"molecular_target": "D3H44 Fab heavy chain L124E_L143E_K145M", "assay": "LCCA, L1:L2 DNA 1:3 normalised to 1:1, SPR of light chain tags; competitor m55"}, "[13]": {"molecular_target": "D3H44 Fab heavy chain L124R_D146N_Q179K", "assay": "LCCA, L1:L2 DNA 1:3 normalised to 1:1, SPR of light chain tags; competitor m55"}, "[14]": {"molecular_target": "D3H44 Fab heavy chain L124R_D146N_Q179K (H1 of LCCA sets 9358, 9359, 9357, 9351, 9352, 9353, 9354, 9350)", "remark": "listed apart in the source"}, "[15]": {"molecular_target": "D3H44 Fab heavy chain L124R_D146N_Q179K (H1 of LCCA sets 9358, 9359, 9357, 9351, 9352, 9353, 9354, 9350)", "assay": "LCCA: H1 co-expressed with L1 and L2 (DNA 333:250:749 ng), His-tag capture on SPR chip, light chain tags detected with anti-HA/anti-FLAG; competitor L2 Q124K_V133G_S176R_T178K"}, "[16]": {"molecular_target": "D3H44 Fab heavy chain L124E_L143D_K145T (H1 of LCCA sets 9214, 9217, 9216, 9219, 9220, 9225, 9228, 9229)", "assay": "LCCA: H1 co-expressed with L1 and L2 (DNA 333:250:749 ng), His-tag capture on SPR chip, light chain tags detected with anti-HA/anti-FLAG; competitor L1 Q124K_V133G_S176R_T178R"}, "[17]": {"molecular_target": "D3H44 Fab heavy chain L124E_L143E_K145M (H1 of LCCA sets 9269, 9266, 9267, 9260, 9262, 9263)", "assay": "LCCA: H1 co-expressed with L1 and L2 (DNA 333:250:749 ng), His-tag capture on SPR chip, light chain tags detected with anti-HA/anti-FLAG; competitor L1 Q124K_V133G_S176R_T178R"}, "[18]": {"molecular_target": "D3H44 Fab heavy chain S188L", "assay": "LCCA, L1:L2 DNA 1:3 normalised to 1:1, SPR of light chain tags; competitor m48"}, "[19]": {"molecular_target": "D3H44 Fab heavy chain S188L_V190F", "assay": "LCCA, L1:L2 DNA 1:9 normalised to 1:1, SPR of light chain tags; competitor m49"}, "[20]": {"molecular_target": "D3H44 Fab heavy chain S188L", "assay": "LCCA, L1:L2 DNA 1:3 normalised to 1:1, SPR of light chain tags; competitor m47"}, "[21]": {"molecular_target": "D3H44 Fab heavy chain S188L_V190F", "assay": "LCCA, L1:L2 DNA 1:3 normalised to 1:1, SPR of light chain tags; competitor m49"}, "[22]": {"molecular_target": "D3H44 Fab heavy chain of LCCA set 6036", "assay": "LCCA, L1:L2 DNA 1:3 normalised to 1:1, SPR of light chain tags; competitor m50"}, "[23]": {"molecular_target": "D3H44 Fab heavy chain L124A", "assay": "LCCA, L1:L2 DNA 1:3 normalised to 1:1, SPR of light chain tags; competitor m50"}, "[24]": {"molecular_target": "D3H44 Fab heavy chain L124W_L143F", "assay": "LCCA, L1:L2 DNA 1:3 normalised to 1:1, SPR of light chain tags; competitor m50"}, "[25]": {"molecular_target": "D3H44 Fab heavy chain A139C_C233S", "assay": "LCCA, L1:L2 DNA 1:3 normalised to 1:1, SPR of light chain tags; competitor m42"}, "[26]": {"molecular_target": "D3H44 Fab heavy chain A139C_C233S", "assay": "LCCA, L1:L2 DNA 1:9 normalised to 1:1, SPR of light chain tags; competitor m42"}, "[27]": {"molecular_target": "D3H44 Fab heavy chain of LCCA set 6036", "assay": "LCCA, L1:L2 DNA 1:3 normalised to 1:1, SPR of light chain tags; competitor m51"}, "[28]": {"molecular_target": "D3H44 Fab heavy chain L124A", "assay": "LCCA, L1:L2 DNA 1:3 normalised to 1:1, SPR of light chain tags; competitor m51"}, "[29]": {"molecular_target": "D3H44 Fab heavy chain L124W_L143F", "assay": "LCCA, L1:L2 DNA 1:3 normalised to 1:1, SPR of light chain tags; competitor m51"}, "[30]": {"molecular_target": "D3H44 Fab heavy chain A139G_F174V_V190A", "assay": "LCCA, L1:L2 DNA 1:9 normalised to 1:1, SPR of light chain tags; competitor m45"}, "[31]": {"molecular_target": "D3H44 Fab heavy chain S188L_V190Y", "assay": "LCCA, L1:L2 DNA 1:9 normalised to 1:1, SPR of light chain tags; competitor m45"}, "[32]": {"molecular_target": "D3H44 Fab heavy chain A139G_F174V_V190A", "assay": "LCCA, L1:L2 DNA 1:3 normalised to 1:1, SPR of light chain tags; competitor m45"}, "[33]": {"molecular_target": "D3H44 Fab heavy chain S188L_V190Y", "assay": "LCCA, L1:L2 DNA 1:3 normalised to 1:1, SPR of light chain tags; competitor m45"}, "[34]": {"molecular_target": "D3H44 Fab heavy chain F122C_C233S", "assay": "LCCA, L1:L2 DNA 1:3 normalised to 1:1, SPR of light chain tags; competitor m42"}, "[35]": {"molecular_target": "D3H44 Fab heavy chain P175C_C233S", "assay": "LCCA, L1:L2 DNA 1:3 normalised to 1:1, SPR of light chain tags; competitor m42"}, "[36]": {"molecular_target": "D3H44 Fab heavy chain P175C_C233S", "assay": "LCCA, L1:L2 DNA 1:9 normalised to 1:1, SPR of light chain tags; competitor m42"}}, "note": "Where two headings read alike, the source gives them in different places.", "data": [{"substance": "D3H44 light chain S176L", "values": [{"measurement": "H1L1:H1L2 normalized median ratio", "setting": "[1]", "result": 22, "unit": "%"}, {"measurement": "H1L1:H1L2 normalized median scalar value ln(r1/f1)", "setting": "[1]", "result": -1.25}, {"measurement": "H2L2:H2L1 normalized median ratio", "setting": "[2]", "result": 7, "unit": "%"}]}, {"substance": "D3H44 light chain Q124E_V133G_S176D_T178E_T180E", "values": [{"measurement": "H1L1:H1L2 normalized median ratio (% of heavy chain paired)", "setting": "[3]", "result": 2}, {"measurement": "H2L2:H2L1 normalized median ratio (% of heavy chain paired)", "setting": "[4]", "result": 84}, {"measurement": "H1L1:H1L2 normalized median ratio (% of heavy chain paired)", "setting": "[5]", "result": 5}, {"measurement": "H2L2:H2L1 normalized median ratio (% of heavy chain paired)", "setting": "[6]", "result": 92}, {"measurement": "median LCCA performance normalized to a L1:L2 DNA ratio of 1:1 (ratio H1-L1:H1-L2), H1-L2 share (ratio part of 100)", "setting": "[7]", "result": 21}, {"measurement": "median LCCA performance normalized to a L1:L2 DNA ratio of 1:1 (ratio H1-L1:H1-L2), H1-L1 share (ratio part of 100)", "setting": "[8]", "result": 90}, {"measurement": "median LCCA performance normalized to a L1:L2 DNA ratio of 1:1 (ratio H1-L1:H1-L2), H1-L1 share (ratio part of 100)", "setting": "[9]", "result": 82}, {"measurement": "H1L1:H1L2 normalized median ratio (% of heavy chain paired)", "setting": "[10]", "result": 6}, {"measurement": "H2L2:H2L1 normalized median ratio (% of heavy chain paired)", "setting": "[11]", "result": 90}, {"measurement": "H1L1:H1L2 normalized median ratio", "setting": "[12]", "result": 16, "unit": "%"}, {"measurement": "H2L2:H2L1 normalized median ratio", "setting": "[13]", "result": 84, "unit": "%"}, {"measurement": "median LCCA performance normalized to a L1:L2 DNA ratio of 1:1 (ratio H1-L1:H1-L2), H1-L1 share (ratio part of 100)", "setting": "[14]", "result": 89}, {"measurement": "median LCCA performance normalized to a L1:L2 DNA ratio of 1:1 (ratio H1-L1:H1-L2), H1-L1 share (ratio part of 100)", "setting": "[15]", "result": 84}, {"measurement": "median LCCA performance normalized to a L1:L2 DNA ratio of 1:1 (ratio H1-L1:H1-L2), H1-L2 share (ratio part of 100)", "setting": "[16]", "result": 17}, {"measurement": "median LCCA performance normalized to a L1:L2 DNA ratio of 1:1 (ratio H1-L1:H1-L2), H1-L2 share (ratio part of 100)", "setting": "[17]", "result": 16}]}, {"substance": "D3H44 light chain, wild type", "values": [{"measurement": "H2L2:H2L1 normalized median ratio", "setting": "[18]", "result": 61, "unit": "%"}, {"measurement": "H2L2:H2L1 normalized median ratio", "setting": "[19]", "result": 72, "unit": "%"}, {"measurement": "H2L2:H2L1 normalized median ratio", "setting": "[20]", "result": 93, "unit": "%"}, {"measurement": "H2L2:H2L1 normalized median ratio", "setting": "[21]", "result": 61, "unit": "%"}]}, {"substance": "D3H44 light chain V133A", "values": [{"measurement": "H2L2:H2L1 normalized median ratio", "setting": "[22]", "result": 59, "unit": "%"}, {"measurement": "H1L1:H1L2 normalized median ratio", "setting": "[23]", "result": 59, "unit": "%"}, {"measurement": "H2L2:H2L1 normalized median ratio", "setting": "[24]", "result": 56, "unit": "%"}]}, {"substance": "D3H44 light chain F116C_C214S", "values": [{"measurement": "H1L1:H1L2 normalized median scalar value ln(r1/f1)", "setting": "[25]", "result": 1.37}, {"measurement": "H1L1:H1L2 normalized median scalar value ln(r1/f1)", "setting": "[26]", "result": 1.39}]}, {"substance": "D3H44 light chain V133W", "values": [{"measurement": "H2L2:H2L1 normalized median ratio", "setting": "[27]", "result": 41, "unit": "%"}, {"measurement": "H1L1:H1L2 normalized median ratio", "setting": "[28]", "result": 41, "unit": "%"}, {"measurement": "H1L1:H1L2 normalized median scalar value ln(r1/f1)", "setting": "[28]", "result": -0.38}, {"measurement": "H2L2:H2L1 normalized median ratio", "setting": "[29]", "result": 44, "unit": "%"}]}, {"substance": "D3H44 light chain V133S", "values": [{"measurement": "H1L1:H1L2 normalized median ratio", "setting": "[30]", "result": 11, "unit": "%"}, {"measurement": "H2L2:H2L1 normalized median ratio", "setting": "[31]", "result": 62, "unit": "%"}, {"measurement": "H1L1:H1L2 normalized median ratio", "setting": "[32]", "result": 26, "unit": "%"}, {"measurement": "H2L2:H2L1 normalized median ratio", "setting": "[33]", "result": 58, "unit": "%"}]}, {"substance": "D3H44 light chain S121C_C214S", "values": [{"measurement": "H1L1:H1L2 normalized median scalar value ln(r1/f1)", "setting": "[34]", "result": 3.12}]}, {"substance": "D3H44 light chain S162C_C214S", "values": [{"measurement": "H1L1:H1L2 normalized median scalar value ln(r1/f1)", "setting": "[35]", "result": 1.84}, {"measurement": "H1L1:H1L2 normalized median scalar value ln(r1/f1)", "setting": "[36]", "result": 1.24}]}]}
